Conditions in all cases: both partners purified
Assay [1] has as its target T1, preformed Nb28_2-APH2 complex (llama, N-terminus acetylated; C-terminus amidated).
T1 construct: peptide APHshSN, as Dm8; Nb28, as Dm3; source: formed in the ITC cell by a first titration of Nb28 into APH2; copies: 2 + 2
In words: ITC; nanobody in the syringe titrated into the cell with TET12SN or a tetrahedron variant (2-5 µM), CC peptide dimer (5-10 µM) or a complex preformed by a first titration; MicroCal VP-ITC, 25 °C; 20 mM sodium phosphate pH 7.0, 150 mM NaCl; independent binding sites model (SEDPHAT), errors by Monte-Carlo. On the technique in general: Isothermal titration calorimetry measures the heat released or taken up as one component is titrated into another.

For assay [2], the target named is T2, APH2, antiparallel homodimeric coiled coil of the synthetic peptide APHshSN (N-terminus acetylated; C-terminus amidated).
T2 construct: designed peptide APH (full name APHshSN); also called APH peptide pair; source: synthetic peptide, bought: ProteoGenix
T2 peptide: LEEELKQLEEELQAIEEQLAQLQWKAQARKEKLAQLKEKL
The description is as above.

Assay [3] has as its target T3, antiparallel homodimeric APH coiled-coil (APH2), isolated peptide dimer (synthetic construct (designed peptide …)).
T3 construct: residues named in the text: E4, L8, I15, Q18, Q21, L22, W24, K25, R29; also called APH CC; APH2 peptide; source: synthetic peptide
T3 chain: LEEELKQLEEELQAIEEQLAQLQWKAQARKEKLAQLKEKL
In words: crystal structure; crystals of nanobody-CC dimer complexes, solved by molecular replacement.

Assay [4] deals with T2, APH2, antiparallel homodimeric coiled …. Briefly: ITC; titrations at 18, 25 and 32 °C fitted globally (independent binding sites, temperature-independent heat capacity); parameters reported at 25 °C; 20 mM sodium phosphate pH 7.0, 150 mM NaCl.
In assay [5] the target is T4, preformed Nb30_2-APH2 complex (llama, N-terminus acetylated; C-terminus amidated).
T4 construct: peptide APHshSN, as Dm8; Nb30, as Dm5; source: formed in the ITC cell by a first titration of Nb30 into APH2; copies: 2 + 2
Briefly: ITC; nanobody in the syringe titrated into the cell with TET12SN or a tetrahedron variant (2-5 µM), CC peptide dimer (5-10 µM) or a complex preformed by a first titration; MicroCal VP-ITC, 25 °C; 20 mM sodium phosphate pH 7.0, 150 mM NaCl; independent binding sites model (SEDPHAT), errors by Monte-Carlo.

For assay [6], the target named is T3, antiparallel homodimeric APH …. Briefly: ITC; nanobody titrated into the CC peptide dimer, the origami protein or a preformed nanobody-target complex; conditions in SI Appendix.

B1: nanobody Nb30 (VHH)
VHH: QVQLQESGGGLVQPGGSLRLSCAASGSIFSDNDMGWYRQPPGKQREWVATITYDHVTWYADSVKGRFAISRDNAKNTVYLQMNDLKPEDTAVYYCNAVPGRRGSWGQGTQVTVSS
notes: no cleavage of the His6 tag is described; also called Group 10 (Nb30); source: E. coli WK6, periplasmic extract, purified (Ni2+-NTA, SEC)
Usually Kd stands for the equilibrium constant for the complex coming apart. Higher therefore signals a looser complex. Usually stoichiometry N stands for a count of units in the complex or per binding partner. Regarding B1, the figures for the Kd in assay [1] and in assay [2] were 55 ± 4.2 nM and 710 ± 58 nM, respectively. Also, the “stoichiometry N” value in assay [1] is 2 nanobody per complex (cell:syringe); in assay [2], 2 nanobody per APH2 dimer (cell:syringe).

B2: nanobody Nb30 (VHH)
VHH: QVQLQESGGGLVQPGGSLRLSCAASGSIFSDNDMGWYRQPPGKQREWVATITYDHVTWYADSVKGRFAISRDNAKNTVYLQMNDLKPEDTAVYYCNAVPGRRGSWGQGTQVTVSS
notes: selected by phage display from a llama immunised with TET12SN; construct and tags are in SI Appendix, Materials and Methods; source: E. coli, recombinant, produced and isolated according to standard procedures
Turning to B2, in assay [3], the “stoichiometry N” value is 2 nanobodies per APH2 dimer (printed 2:2 nanobody:CC peptide).

B3: nanobody Nb28 (VHH)
VHH: QVQLQESGGGLVQPGGSLRLSCAAPGFRLDNYVIGWFRQAPGKEREGVSCISSSAGSTYYADSVKGRFTISRDNAKNTVYLQMNSLKPEDTAVYYCATACYSSYVTYWGQGTQVTVSS
notes: no cleavage of the His6 tag is described; also called Group 8 (Nb28); source: E. coli WK6, periplasmic extract, purified (Ni2+-NTA; some nanobodies also SEC)
B3: the Kd was 94 ± 7.5 nM in assay [4], 23 ± 1.7 nM in assay [5] and 140 ± 10 nM in assay [2]. The entries for the “stoichiometry N” value in assay [4], in assay [5] and in assay [2] were 2 nanobody per APH2 dimer (cell:syringe), 2 nanobody per complex (cell:syringe) and 2 nanobody per APH2 dimer (cell:syringe), respectively.

B4: nanobody Nb28 (VHH)
VHH: QVQLQESGGGLVQPGGSLRLSCAAPGFRLDNYVIGWFRQAPGKEREGVSCISSSAGSTYYADSVKGRFTISRDNAKNTVYLQMNSLKPEDTAVYYCATACYSSYVTYWGQGTQVTVSS
notes: as for B2
With B4, in assay [3], the “stoichiometry N” value was 2 nanobodies per APH2 dimer (printed 2:2 nanobody:CC peptide).

B5: nanobody Nb26 (VHH)
VHH: QVQLQESGGGLVQAGDSLRLSCAASGRTFSTYPMGWFRQAPGKEREFVAASSSRAYYADSVKGRFTISRNNAKNTVYLQMNSLKPEDTAVYYCVADSSPYYRRYDAAQDYDYWGQGTQVTVSS
notes: no cleavage of the His6 tag is described; also called Group 1 (Nb26); source: E. coli WK6, periplasmic extract, purified (Ni2+-NTA; some nanobodies also SEC)
With B5, in assay [2], the “stoichiometry N” value was 2 nanobody per APH2 dimer (cell:syringe).

B6: nanobody Nb26 (VHH)
VHH: QVQLQESGGGLVQAGDSLRLSCAASGRTFSTYPMGWFRQAPGKEREFVAASSSRAYYADSVKGRFTISRNNAKNTVYLQMNSLKPEDTAVYYCVADSSPYYRRYDAAQDYDYWGQGTQVTVSS
notes: as for B2
Take B6: in assay [3], the “stoichiometry N” value is 2 nanobodies per APH2 dimer (printed 2:2 nanobody:CC peptide). For the same molecule, in assay [6], the affinity, expressed as Kd, was 39 nM and the dH was -28 kcal ⋅ mol^−1.

B7: nanobody Nb49 (VHH)
VHH: QVQLQESGGGLVQPGGSLRLSCIASGRTFNPYGMGWFRQVPGKERTFVSGITWIGGTTYYVNSVKGRFTISRDRAKNTVYLQMNSLKPEDTAVYYCAADKDNTGYNYWGQGTQVTVSS
notes: no cleavage of the His6 tag is described; also called Group 4 (Nb49); source: E. coli WK6, periplasmic extract, purified (Ni2+-NTA; some nanobodies also SEC)
Take B7: the “stoichiometry N” value in assay [2] is 2 nanobody per APH2 dimer (cell:syringe).

B8: nanobody Nb49 (VHH)
VHH: QVQLQESGGGLVQPGGSLRLSCIASGRTFNPYGMGWFRQVPGKERTFVSGITWIGGTTYYVNSVKGRFTISRDRAKNTVYLQMNSLKPEDTAVYYCAADKDNTGYNYWGQGTQVTVSS
notes: as for B2
For the molecule B8, the “stoichiometry N” value in assay [3] was 2 nanobodies per APH2 dimer (printed 2:2 nanobody:CC peptide). In assay [6], this molecule had a dissociation constant Kd of 570 nM.

Values taken from publication PMC8092592, “A nanobody toolbox targeting dimeric coiled-coil modules for functionalization of designed protein origami structures” (Proceedings of the National Academy of Sciences of the …, 2021).
